Experimental data from publication PMC4800795.
One block for each binder: values may come before it.

What was measured:
[1] = target: T1, endogenous IRF3 of HEK293T cells (human (endogenous in HEK293T)), Q14653; assay: native gel or EMSA; native PAGE (deoxycholate in the cathode buffer, on ice) of HEK293T lysates, Western blot; cells stimulated with poly(I·C) 10 μg/ml for 12 h, with or without Flag-FAF1; conditions: remark: other sources report otherwise
T1 chain: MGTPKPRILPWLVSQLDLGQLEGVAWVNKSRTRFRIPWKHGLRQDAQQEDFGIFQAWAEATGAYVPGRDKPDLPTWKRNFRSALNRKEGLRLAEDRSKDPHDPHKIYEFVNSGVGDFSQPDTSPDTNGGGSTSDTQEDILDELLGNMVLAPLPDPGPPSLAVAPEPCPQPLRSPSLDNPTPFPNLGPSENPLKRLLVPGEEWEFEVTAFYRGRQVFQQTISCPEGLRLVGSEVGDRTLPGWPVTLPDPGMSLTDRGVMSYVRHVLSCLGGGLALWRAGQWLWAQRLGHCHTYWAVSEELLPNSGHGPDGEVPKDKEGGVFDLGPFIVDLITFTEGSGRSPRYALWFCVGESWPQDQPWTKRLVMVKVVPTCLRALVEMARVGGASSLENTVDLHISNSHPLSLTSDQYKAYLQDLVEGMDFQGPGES

[2] = target: T2, GFP-tagged wild-type IRF3 (IRF3-WT-GFP), in HEK293T cells, Q14653; assay: as above; conditions: remark: other sources report otherwise
T2 chain: T1 chain

- stoichiometry N [1]: 2
B1: endogenous IRF3 of HEK293T cells, Q14653 1-427 (natural protein)
chain: T1 chain

- stoichiometry N [2]: 2
B2: GFP-tagged wild-type IRF3 (IRF3-WT-GFP), in HEK293T cells, Q14653 1-427 (natural protein)
chain: T1 chain
